# Patent US20240279345A1, “ALPHA 5 BETA 1 INTEGRIN BINDING AGENTS AND USES THEREOF” (PASITHEA THERAPEUTICS CORP., priority 2021, published 2024)
# Changes are numbered by the printed parent chain.
# B1: A2-5D10 (antibody, V domains shown)
# VH: QVQLKESGPGLVAPSQSLSITCTISGFSLTSYGVHWVRQPPGKGLEWLVVIWSDGSTTYNSTLKSRLSISKDNSKSQVFLKMNSLQTDDTAMYYCARHYDYDGDWFAYWGQGTLVTVSA
# VL: QILLTQSPAIMSASLGERVTMTCTASSSVSSRCLHWYQQKPGSSPKLWIYSTSNLASGVPARFRGSGSGTSYSLTISSMEAEDAATYYCHQYYRSPPTFGGGTKLEIK
# notes: mouse hybridoma antibody
# B2: A2-7A05 (antibody, V domains shown)
# VH: QVQLQQPGAELVKPGASVKLSCKASGYTFTIYWINWVKQRPGQGLEWIGKIYPGSISTDYNEKFKSKATLTVDTSSSTAYMQLSSLTSDDSAVYYCAITGTGGLAYWGQGTLVTVSA
# VL: ENVLTQSPAIMSASLGEKVTMTCRASSSVNYMYWYQQKSDASPKLWIYFTSSLAPGVPGRFSGSGSGNSYSLTISTMEGEDAATYYCQQFTTSPFTFGSGTKLEIK
# notes: mouse hybridoma antibody; also called A2-7A05 (hybridoma)
# B3: A2-7F01 (antibody, V domains shown)
# VH: B2 VH with K50N, I56S, D59N, S66T, L104F
# VL: B2 VL with T22S, G59T, Y70F, T76S, F90L, T92G, K102R
# notes: mouse hybridoma antibody
# Assays:
# [1] = molecular target: rh-α5β1 protein bound to human FN protein (Homo sapiens, UniProt P05556+P08648); assay: SPR dissociation of rh-α5β1 bound to FN; format: biochemical; settings: 1 μM antibody injected for 250s after 400 nM rh-α5β1; 25° C.
# Method: Surface Plasmon Resonance (SPR) and a cell-based assay were used to test the effect of the antibodies on the dissociation of rh-α5β1 protein bound to human FN protein. The antibodies tested are representatives of the two groups of antibodies identified in Example 6 that define two different epitope binding groups and have distinct ligand blocking properties. […] In addition, the small molecule antagonist cyclic RGD (cRGD; Creative-Peptides, Shirley, New York, 11967, cat. no. CP22175) was tested as a comparator that inhibits α5β1 integrin binding to FN by competing at the ligand binding pocket.
# Description of the SPR method used: FN protein dissolved in water was manually printed onto the bare gold-coated (thickness 47 nm) PlexArray Nanocapture Sensor Chip (Plexera Bioscience, Seattle, WA) at 40% humidity. The chip was incubated in 80% humidity at 4° C. for overnight and rinsed with 10×PBST (0.1M phosphate buffer, 1.54M NaCl, pH7.4, 0.5% Tween20) for 10 minutes (min), 1×PBST (0.01M phosphate buffer pH7.4, 0.154M NaCl, 0.05% Tween20) for 10 min, and deionized water twice for 10 min. The chip was then blocked with 5% (w/v) non-fat milk in water overnight, and washed with 10×PBST for 10 min, 1×PBST for 10 min, and deionized water twice for 10 min before being dried under a stream of nitrogen prior to use. SPR measurements were performed using PlexArray HT (Plexera Bioscience, Seattle, WA), a high-throughput surface plasmon resonance imaging (SPRi) platform. Collimated light (660 nm) passes through the coupling prism, reflects off the SPR-active gold surface, and is received by the CCD camera. Buffers and samples were injected by a non-pulsatile piston pump into the 30 μL flow cell that was mounted on the coupling prim. […] SPR binding responses (a.u.) were recorded and plotted over time.
# U87MG cells = assay: Cellular detachment of U87MG cells from FN coated plates; format: cell-based; settings: antibodies 2.0-0.016 μg/mL, cRGD 20-0.16 μM; 1 hour and 3 hours
# Method: The A-15B08 and A2-7A05 antibodies and cRGD were also tested for their ability to induce dissociation of cellular α5β1 integrin from FN. U87MG cells (HTB-14™, ATCC, Manassas, VA) which were originally derived from a Glioblastoma tumor, are known to express α5β1 integrin, and adhere to FN coated plates. After an overnight incubation on FN coated plates, the U87MG cells formed a loosely packed monolayer and have extended spindle shapes. If the cells are induced to detach from the plates, by trypsin for example, the attachment points are released, and the cells become round. This type of change in morphology was used to assess whether the antibodies and the small molecule inhibitor cRGD can induce U87MG cells to dissociate from FN coated plates.
# The following method was used to assess cellular detachment activity: A 96-well cell culture plate (Thermo Fisher Scientific, Waltham, MA, cat. no. 165306) was coated with FN (Human Fibronectin, R&D Systems, Minneapolis, MN 55413, cat. no. 1918-FN) by incubation of 50 uL per well 32 μg/mL FN in 1×PBS for 1 hour at 37° C., then washed 2× with EMEM media (ATCC, Manassas, VA, cat. no. 30-2003) supplemented with 10% Fetal Bovine Serum (FBS; ATCC, Manassas, VA, cat. no. 30-2021). U87MG cells were plated at 20,000 cells per well in EMEM media+10% FBS overnight to allow for maximum adherence. The next day the media was replaced with fresh media that included a 1:5 dilution series of antibodies A-15B08, A2-7A05 or isotype control IgG4 at concentrations of 2.0, 0.4, 0.08 and 0.016 μg/mL or cRGD at 20, 4, 0.8 and 0.16 μM. All tests were run in duplicate. Cell morphology was assessed, and images were captured using a 10× objective of an ECHO Rebel light microscope (ECHO, San Diego, CA).
# [2] = molecular target: T1, recombinant human α4β1 integrin (rh-α4β1; R&D Systems, cat. no. 5668-A4) (human, UniProt P13612 34-977; P05556 21-728); assay: ELISA, coated rh-α4β1, supernatant 1:10
# T1 construct: bought recombinant heterodimer
# T1 sequence (P13612 34-977 limits assumed, form in doubt, chain 1 of 2): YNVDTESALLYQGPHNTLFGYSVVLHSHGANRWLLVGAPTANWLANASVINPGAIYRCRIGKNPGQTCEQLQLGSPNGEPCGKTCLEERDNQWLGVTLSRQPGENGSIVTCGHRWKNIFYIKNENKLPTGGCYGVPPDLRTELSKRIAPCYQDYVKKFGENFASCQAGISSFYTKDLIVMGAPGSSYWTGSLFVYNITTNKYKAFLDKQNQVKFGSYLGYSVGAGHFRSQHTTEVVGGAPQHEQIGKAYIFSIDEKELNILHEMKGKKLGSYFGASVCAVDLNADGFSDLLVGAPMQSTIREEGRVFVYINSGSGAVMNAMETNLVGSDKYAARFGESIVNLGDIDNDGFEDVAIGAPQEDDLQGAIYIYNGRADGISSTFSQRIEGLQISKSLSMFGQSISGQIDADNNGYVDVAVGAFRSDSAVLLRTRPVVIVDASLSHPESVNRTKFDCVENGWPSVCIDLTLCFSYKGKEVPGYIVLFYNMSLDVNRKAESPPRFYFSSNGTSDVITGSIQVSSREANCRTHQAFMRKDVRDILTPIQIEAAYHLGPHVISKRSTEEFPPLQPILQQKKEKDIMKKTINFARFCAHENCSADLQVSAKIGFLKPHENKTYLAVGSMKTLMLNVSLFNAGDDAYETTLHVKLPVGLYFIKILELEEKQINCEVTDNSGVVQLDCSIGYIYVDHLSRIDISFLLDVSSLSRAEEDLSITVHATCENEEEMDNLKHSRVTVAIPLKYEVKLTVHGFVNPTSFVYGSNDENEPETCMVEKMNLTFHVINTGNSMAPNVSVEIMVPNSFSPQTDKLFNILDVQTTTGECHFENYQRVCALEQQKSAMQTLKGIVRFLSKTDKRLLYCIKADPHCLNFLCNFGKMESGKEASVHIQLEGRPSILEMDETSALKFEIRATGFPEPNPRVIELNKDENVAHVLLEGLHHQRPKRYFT
# T1 sequence (P05556 21-728 limits assumed, form in doubt, chain 2 of 2): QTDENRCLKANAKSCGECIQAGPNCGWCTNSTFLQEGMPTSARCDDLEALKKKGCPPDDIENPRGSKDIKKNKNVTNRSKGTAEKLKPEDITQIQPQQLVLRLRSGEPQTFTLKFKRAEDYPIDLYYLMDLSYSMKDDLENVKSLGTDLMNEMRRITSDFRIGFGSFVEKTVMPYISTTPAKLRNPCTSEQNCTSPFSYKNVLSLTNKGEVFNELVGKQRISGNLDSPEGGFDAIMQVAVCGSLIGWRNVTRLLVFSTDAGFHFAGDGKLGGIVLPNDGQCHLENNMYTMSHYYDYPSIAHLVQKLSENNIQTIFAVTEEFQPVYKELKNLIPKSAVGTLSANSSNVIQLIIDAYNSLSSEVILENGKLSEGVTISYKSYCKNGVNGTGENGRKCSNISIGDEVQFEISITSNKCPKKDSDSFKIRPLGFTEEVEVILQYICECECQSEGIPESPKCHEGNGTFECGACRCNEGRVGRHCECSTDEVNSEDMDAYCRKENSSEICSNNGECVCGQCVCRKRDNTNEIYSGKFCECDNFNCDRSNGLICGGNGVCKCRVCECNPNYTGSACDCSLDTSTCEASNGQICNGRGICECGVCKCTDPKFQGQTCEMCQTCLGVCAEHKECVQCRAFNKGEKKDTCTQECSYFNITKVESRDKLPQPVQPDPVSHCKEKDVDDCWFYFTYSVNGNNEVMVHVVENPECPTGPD
# [3] = molecular target: T2, recombinant human α5β1 integrin (rh-α5β1; R&D Systems, cat. no. 3230-A5) (human, UniProt P08648 42-995; P05556 21-728); assay: ELISA, coated rh-α5β1, supernatant 1:10
# T2 construct: bought recombinant heterodimer
# T2 sequence (P08648 42-995 limits assumed, form in doubt, chain 1 of 2): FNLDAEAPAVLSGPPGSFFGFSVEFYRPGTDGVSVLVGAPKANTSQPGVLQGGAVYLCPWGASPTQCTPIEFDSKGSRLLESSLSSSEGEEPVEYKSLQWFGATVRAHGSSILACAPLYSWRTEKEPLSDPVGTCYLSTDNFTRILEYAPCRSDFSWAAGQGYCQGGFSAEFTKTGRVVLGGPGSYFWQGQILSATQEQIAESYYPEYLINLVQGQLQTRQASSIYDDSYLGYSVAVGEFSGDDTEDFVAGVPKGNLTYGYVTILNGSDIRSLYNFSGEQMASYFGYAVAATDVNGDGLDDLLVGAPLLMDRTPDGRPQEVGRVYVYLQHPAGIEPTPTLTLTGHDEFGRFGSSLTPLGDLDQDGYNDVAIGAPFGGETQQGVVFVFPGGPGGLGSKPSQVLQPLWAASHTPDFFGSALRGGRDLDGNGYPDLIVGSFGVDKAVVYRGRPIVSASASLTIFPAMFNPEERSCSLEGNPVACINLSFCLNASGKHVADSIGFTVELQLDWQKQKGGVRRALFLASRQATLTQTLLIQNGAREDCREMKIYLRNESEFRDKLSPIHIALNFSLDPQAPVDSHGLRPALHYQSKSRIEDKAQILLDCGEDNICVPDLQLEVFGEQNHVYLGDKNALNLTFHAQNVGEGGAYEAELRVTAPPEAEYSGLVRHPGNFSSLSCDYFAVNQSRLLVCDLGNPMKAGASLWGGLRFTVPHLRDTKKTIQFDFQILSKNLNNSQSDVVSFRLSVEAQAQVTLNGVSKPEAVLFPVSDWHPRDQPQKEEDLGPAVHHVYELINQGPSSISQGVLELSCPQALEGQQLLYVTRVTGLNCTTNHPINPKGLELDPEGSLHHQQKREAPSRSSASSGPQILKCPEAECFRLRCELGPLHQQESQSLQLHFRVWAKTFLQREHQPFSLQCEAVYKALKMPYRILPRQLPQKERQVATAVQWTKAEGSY
# T2 sequence (P05556 21-728 limits assumed, form in doubt, chain 2 of 2): as the sequence (P05556 21-728 limits assumed, form in doubt, chain 2 of 2) above
# Method: (§1) Plates were washed 3 times with Wash Buffer (1× Tris Buffered Saline containing 0.05% Tween20), blocked with 2% BSA in 1×TBS (made from 10× Thermo Scientific Blocker BSA (10×) in TBS; Thermo Fisher Scientific, Waltham, MA, cat. no. 37520) for 2 hours at room temperature (RT) then incubated with hybridoma supernatants diluted 1:10 with Standard Diluent (2% BSA, 1×TBS, 0.05% Tween20). […] Absorbance 450 nm was measured.
# [4] = molecular target: T3, recombinant mouse α5β1 (rm-α5β1; R&D Systems, cat. no. 7728-A5) (mouse, UniProt P11688 45-999; P09055 21-728); assay: ELISA, coated rm-α5β1, supernatant 1:10
# T3 construct: bought recombinant heterodimer
# T3 sequence (P11688 45-999 limits assumed, form in doubt, chain 1 of 2): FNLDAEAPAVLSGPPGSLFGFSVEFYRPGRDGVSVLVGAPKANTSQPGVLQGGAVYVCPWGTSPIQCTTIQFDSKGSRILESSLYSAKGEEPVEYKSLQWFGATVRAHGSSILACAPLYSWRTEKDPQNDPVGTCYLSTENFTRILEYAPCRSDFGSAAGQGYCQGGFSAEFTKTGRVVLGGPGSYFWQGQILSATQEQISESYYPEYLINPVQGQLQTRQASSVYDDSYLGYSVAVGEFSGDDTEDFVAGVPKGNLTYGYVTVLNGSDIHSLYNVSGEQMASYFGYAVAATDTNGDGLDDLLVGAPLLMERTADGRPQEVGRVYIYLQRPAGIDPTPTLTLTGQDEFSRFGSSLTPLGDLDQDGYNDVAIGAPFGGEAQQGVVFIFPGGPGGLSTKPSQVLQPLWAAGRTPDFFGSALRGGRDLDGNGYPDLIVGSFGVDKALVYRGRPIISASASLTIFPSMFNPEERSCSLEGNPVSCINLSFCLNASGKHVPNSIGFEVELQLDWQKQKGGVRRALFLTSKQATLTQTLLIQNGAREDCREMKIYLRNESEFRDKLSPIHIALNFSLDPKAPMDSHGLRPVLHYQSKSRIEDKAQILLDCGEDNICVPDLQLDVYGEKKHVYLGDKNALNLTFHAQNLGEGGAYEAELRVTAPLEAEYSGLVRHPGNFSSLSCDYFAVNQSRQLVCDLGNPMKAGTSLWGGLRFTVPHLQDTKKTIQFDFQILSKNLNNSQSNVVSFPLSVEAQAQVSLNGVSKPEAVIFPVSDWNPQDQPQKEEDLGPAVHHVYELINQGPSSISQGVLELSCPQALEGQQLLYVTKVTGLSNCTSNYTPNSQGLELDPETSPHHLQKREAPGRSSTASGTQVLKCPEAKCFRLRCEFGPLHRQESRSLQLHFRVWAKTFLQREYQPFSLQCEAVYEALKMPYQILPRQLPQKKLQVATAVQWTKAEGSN
# T3 sequence (P09055 21-728 limits assumed, form in doubt, chain 2 of 2): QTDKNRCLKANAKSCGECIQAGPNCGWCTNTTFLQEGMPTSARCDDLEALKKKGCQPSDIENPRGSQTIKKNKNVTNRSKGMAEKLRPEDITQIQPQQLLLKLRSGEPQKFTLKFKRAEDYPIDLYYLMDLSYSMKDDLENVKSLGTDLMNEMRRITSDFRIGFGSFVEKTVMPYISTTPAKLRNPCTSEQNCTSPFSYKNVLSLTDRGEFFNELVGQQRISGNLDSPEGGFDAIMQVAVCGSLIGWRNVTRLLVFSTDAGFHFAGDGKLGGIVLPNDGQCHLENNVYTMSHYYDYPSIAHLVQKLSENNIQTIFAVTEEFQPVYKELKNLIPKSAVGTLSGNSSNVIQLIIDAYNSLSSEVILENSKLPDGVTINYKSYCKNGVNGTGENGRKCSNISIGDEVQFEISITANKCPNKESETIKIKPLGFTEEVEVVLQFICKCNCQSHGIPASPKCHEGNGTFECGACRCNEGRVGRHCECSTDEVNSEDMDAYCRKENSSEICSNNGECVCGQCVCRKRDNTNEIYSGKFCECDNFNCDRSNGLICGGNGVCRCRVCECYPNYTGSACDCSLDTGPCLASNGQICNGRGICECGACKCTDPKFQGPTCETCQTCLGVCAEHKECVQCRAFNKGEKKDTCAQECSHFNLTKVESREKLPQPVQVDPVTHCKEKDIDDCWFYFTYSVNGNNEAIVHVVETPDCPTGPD
# Method: as §1
# [5] = molecular target: T4, purified recombinant human α5β1 integrin heterodimer, 6×His tagged (rh-α5β1); Acro Biosystems, cat. no. … (human, UniProt P08648 42-995; P05556 21-728); assay: BLI (Octet), supernatant mAb on anti-mouse IgG Fc sensor, 20 nM rh-α5β1
# T4 construct: bought recombinant heterodimer; also called rh-α5β1-6×His tagged protein; His-tagged-α5β1
# T4 sequence (P08648 42-995 limits assumed, form in doubt, chain 1 of 2): as the sequence (P08648 42-995 limits assumed, form in doubt, chain 1 of 2) above
# T4 sequence (P05556 21-728 limits assumed, form in doubt, chain 2 of 2): as the sequence (P05556 21-728 limits assumed, form in doubt, chain 2 of 2) above
# Excerpt: Anti-Mouse IgG Fc biosensors were used to load each clone supernatant. Assay steps were as follows: Sensor Check (30s)-->Load Ab (700s)-->Quench (480s)-->Baseline(480s)-->Ab Assoc. (600s)-->Dissoc. (600s).
# [6] = molecular target: T4, purified recombinant human α5β1 …; assay: ELISA, inhibition of rh-α5β1-His binding to coated FN, purified hybridoma mAb
# Method: Immulon4 HBX ELISA 96-well plates were coated with FN by incubation overnight at 4° C. with 2.5 μg/mL human FN (R&D Systems, Minneapolis, MN 55413, cat. no. 1918-FN) in 1×PBS (0.01M phosphate buffer and 0.154M NaCl, pH 7.4). Plates were then washed 3 times with Wash Buffer (1× Tris Buffered Saline containing 0.05% Tween20), blocked with 2% BSA in 1×TBS for 2 hours at room temperature (RT). […] Isotype control antibody (Control Ab; Ms IgG2a EMD Millipore Corp, Billerica, MA, cat. no. PP102) was used to normalize data across different assay runs. […] Following 1 hour at RT, the wells were washed 3 times, incubated with biotinylated Anti-6×His-Tag Ab (Invitrogen, Carlsbad, CA, cat. no. MAI-21315-BTIN) at 1:1000 in Standard Diluent for 1 hour, washed 3 times, incubated for 30 minutes with poly-HRP Streptavidin (Thermo Fisher Scientific, Waltham, MA, cat. no. N200), washed 4 times, incubated with TMB substrate (Thermo Fisher Scientific, Waltham, MA, cat. no. N301) for 2-5 minutes, followed by addition of ELISA Stop Solution (Invitrogen, Carlsbad, CA, cat. no. SS04). Absorbance 450 nm was measured. Data points were normalized to the isotype Control Ab values at each concentration and reported as % Absorbance 450 nm normalized to Control Ab. Non-linear regression analysis was used to fit curves (4-parameter) to the data using GraphPad Prism version 9.0.2 (GraphPad Software, LLC, San Diego, CA).
Molecule,effect on dissociation of rh-α5β1 protein bound to FN (SPR response) [1],cellular detachment (cell rounding) of U87MG cells from FN coated plates (U87MG cells),Absorbance 450 nm [2],Absorbance 450 nm [3],Absorbance 450 nm [4],Kd [5] [nM],koff [5] [s⁻¹],kon [5] [M⁻¹ s⁻¹],% Max Inhibition [6] [%]
"cyclic RGD [cRGD, reference compound]",did not have any discernable effect on the dissociation rate,did not show significant cell detachment,–,–,–,–,–,–,–
B1,–,–,0.0683,2.31,0.0647,2.32,0.00161,693000,93
B2,–,–,0.0713,2.05,0.0682,0.8,0.000178,222000,41
B3,–,–,0.0617,2.03,0.0563,1.3,0.000314,242000,60
